Measured values published in PMC9693254.
Numbering of substitutions follows the chain as printed. Numbers in names are those of the source.

B1: cocoonase (CCN), mature form (Bombyx mori; K85G) (protein)
chain: IVGGEEISINKVPYQAYLLLQKDNEYFQCGGSIISKRHILTAAHCIEGISGVTVRIGSSNSNKGGTVYTAKSKVAHPKYNSKTKNNDFAIVTVNKDMAIDGKTTKIITLAKEGSSVPDKTKLLVSGWGATSEGGSSSTTLRAVHVQAHSDDECKKYFRSLTSNMFCAGPPEGGKDSCQGDSGGPAVKGNVQLGVVSFGVGCARKNNPGIYAKVSAAAKWIKST
B2: cocoonase (CCN), mature form (Bombyx mori; K153G/K155A/K85G) (protein)
chain: B1 chain with K119G, K121A

Substrate: CCOC(=O)[C@H](CCCNC(=N)N)NC(=O)c1ccccc1
Assay: purified protein
Details: 50 mM Tris/HCl pH 8.0, 25 mM NaCl, 1 mM EDTA, 25 °C, substrate 25–100 μM, apparent Km, numbering of proCCN
[1] = CCN' auto-processed from proCCN'
[2] = mature CCN' prepared from [K8D,K63G,K131G,K133A]-proCCN (K8D lies in the removed propeptide,

Row | Protein | Km [µM] | Vmax [µM/min] | Km [1] [µM] | Vmax [1] [µM/min] | Km [2] [µM] | Vmax [2] [µM/min]
1 | B1 | 400 | 0.006 | – | – | – | –
2 | B2 | – | – | 370 | 0.0084 | 920 | 0.0276
